*1 amine or outer side, *2 acyl side, *3 side chain or, on linkers, in order; H or OH if unused. Where no end group is shown, it is not given here. [ ]: non-standard residue; d: D form. Met(35S) = [35S]-methionine label, C[35S]CC[C@H](N[*:1])C(=O)[*:2]
Target: biotinylated hPD-L1 (extracellular domain of human PD-L1, Ala18 to Thr239, expressed in E. coli, non-glycosylated) (human)
Assay: [35S]-labeled truncated variant on immobilized hPD-L1, normalized to [35S]-SPAM

| binding as compared with full-length SPAM [%] | Binder |
| --- | --- |
| < 25 | [Met(35S)]DHILNKFWILHYAGSGSSGHHHHHHSS [Trunc 4 (SPAM with P2, I3, F4 and L5 deleted)] |
| < 25 | [Met(35S)]LDHILNKFWILHYAGSGSSGHHHHHHSS [Trunc 3 (SPAM with P2, I3 and F4 deleted)] |
